Data from publication PMC4120998 (Journal of the American Chemical Society, 2014).

Target: CXCR4 on human Jurkat cells (Homo sapiens (endogenous, Jurkat cells), UniProt P61073)
Experiment: flow cytometry on cells

Chain of CXCR4 on human Jurkat cells (P61073 whole entry): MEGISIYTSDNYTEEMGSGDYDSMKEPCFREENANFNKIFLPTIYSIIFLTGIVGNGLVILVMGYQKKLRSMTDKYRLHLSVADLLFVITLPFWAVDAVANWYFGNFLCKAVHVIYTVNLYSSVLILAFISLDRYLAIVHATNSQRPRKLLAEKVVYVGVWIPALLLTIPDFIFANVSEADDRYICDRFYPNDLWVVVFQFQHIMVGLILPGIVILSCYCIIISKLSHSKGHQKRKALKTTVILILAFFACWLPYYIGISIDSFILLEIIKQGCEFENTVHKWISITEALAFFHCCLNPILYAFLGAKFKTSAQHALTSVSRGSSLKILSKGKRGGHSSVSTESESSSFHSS

binding result: no binding (tested: 1 μg/mL)
B1: bovine antibody BLV1H12 (antibody)
VH: QVQLRESGPSLVKPSQTLSLTCTASGFSLSDKAVGWVRQAPGKALEWLGSIDTGGNTGYNPGLKSRLSITKDNSKSQVSLSVSSVTTEDSATYYCTSVHQETKKYQSCPDGYRERSDCSNRPACGTSDCCRVSVFGNCLTTLPVSYSYTYNYEWHVDVWGQGLLVTVSS
VL: QAVLNQPSSVSGSLGQRVSITCSGSSSNVGNGYVSWYQLIPGSAPRTLIYGDTSRASGVPDRFSGSRSGNTATLTISSLQAEDEADYFCASAEDSSSNAVFGSGTTLTVL
